A word on the Kd: it is a measure of binding affinity in units of concentration. Higher therefore signals weaker binding.

From PMC8001305 come the findings set out here.

Series [1] relates to 2LTRZFP-GFP (designed six-finger zinc finger protein fused to GFP). Briefly: competition ELISA. As to conditions: BLI (BLItz, SA tips): 10 mM Tris-HCl pH 7.5, 90 mM KCl, 1 mM MgCl2, 90 uM ZnSO4, 5 mM DTT, 0.5 mM PMSF, temperature not stated, IN: 1:5 IN reaction buffer ….
For series [2] the test system is unchanged. Briefly: competition BLI. As to conditions: BLI (BLItz, SA tips): 10 mM Tris-HCl pH 7.5, 90 mM KCl, 1 mM MgCl2, 90 uM ZnSO4, 5 mM DTT, 0.5 mM PMSF, temperature not stated; IN: 1:5 IN reaction buffer ….
Series [3] shares this test system. Briefly: BLI. As to conditions: BLI (BLItz, SA tips): 10 mM Tris-HCl pH 7.5, 90 mM KCl, 1 mM MgCl2, 90 uM ZnSO4, 5 mM DTT, 0.5 mM PMSF, temperature not stated; IN: 1:5 IN reaction buffer ….
Series [4] deals with HIV-1 integrase (IN) (HIV-1) (UniProt P12497). Briefly: BLI. As to conditions: BLI (BLItz, SA tips): 10 mM Tris-HCl pH 7.5, 90 mM KCl, 1 mM MgCl2, 90 uM ZnSO4, 5 mM DTT, 0.5 mM PMSF, temperature not stated; IN: 1:5 IN reaction buffer ….

As to “AAATCTCTAGCAGTACTGGATGGGCTAATT (double strand) [ds2LTR (30 bp HIV-1 2-LTR circle junction)]”, the binding signal in series [1] amounted to 62 % inhibition. In series [2], the binding signal (nm BLI signal (1.2 without competitor)) was 0.45. Moreover, the Kd in series [3] came out at 40 nM. In series [4], this sequence came in with a Kd of 75 nM and a binding signal (nm BLI signal (0.55 without 2LTRZFP-GFP)) of 0.47.

As to “TGACAGTGCTAGCGTATCATCTAGTCGACG (double strand) [dsNeg (30 bp irrelevant DNA)]”, in series [1] (2 uM dsNeg as competitor against immobilized ds2LTR, OD 1.0 vs 1.3 uninhibited), the inhibition of binding to immobilized ds2LTR was found to be 22 % inhibition. The same sequence showed a binding signal (nm BLI signal (1.2 without competitor)) in series [2] of 1.
